# Molecular target: mannose-6-phosphate receptors (M6PR) (human)
# Experiment: cell-based or functional assay
substance,measurement,value
alpha-galactosidase-Fc fusion protein,"Km value, Michaelis-Menten constant that represents a half of the maximum absorption rate (intracellular absorption in CCD986SK cells, read by enzyme activity after 24 hours)",0.0116 µM
agalsidase-beta (from UniProt P06280 32-429) (enzyme),"Km value, Michaelis-Menten constant that represents a half of the maximum absorption rate (intracellular absorption in CCD986SK cells, read by enzyme activity after 24 hours)",0.0109 µM

# — US20210009984A1
